According to paper PMC2133019 (The Journal of Cell Biology, 1998):
acyl = not defined here

How the values were obtained:
clathrin/AP cages = clathrin/AP cages (Bos taurus, UniProt P49951); assay: NMR line-broadening with assembled clathrin/AP cages; assay type: binding, bovine; conditions: 2.5 mM peptide
[1] = biological target: assembled clathrin/AP cages (bovine (purified from bovine brain)) (UniProt P49951); assay: NMR line-broadening
[2] = 20 mg/ml cages, line-width with cages minus without

clathrin/AP cages, sequence (P49951 whole entry): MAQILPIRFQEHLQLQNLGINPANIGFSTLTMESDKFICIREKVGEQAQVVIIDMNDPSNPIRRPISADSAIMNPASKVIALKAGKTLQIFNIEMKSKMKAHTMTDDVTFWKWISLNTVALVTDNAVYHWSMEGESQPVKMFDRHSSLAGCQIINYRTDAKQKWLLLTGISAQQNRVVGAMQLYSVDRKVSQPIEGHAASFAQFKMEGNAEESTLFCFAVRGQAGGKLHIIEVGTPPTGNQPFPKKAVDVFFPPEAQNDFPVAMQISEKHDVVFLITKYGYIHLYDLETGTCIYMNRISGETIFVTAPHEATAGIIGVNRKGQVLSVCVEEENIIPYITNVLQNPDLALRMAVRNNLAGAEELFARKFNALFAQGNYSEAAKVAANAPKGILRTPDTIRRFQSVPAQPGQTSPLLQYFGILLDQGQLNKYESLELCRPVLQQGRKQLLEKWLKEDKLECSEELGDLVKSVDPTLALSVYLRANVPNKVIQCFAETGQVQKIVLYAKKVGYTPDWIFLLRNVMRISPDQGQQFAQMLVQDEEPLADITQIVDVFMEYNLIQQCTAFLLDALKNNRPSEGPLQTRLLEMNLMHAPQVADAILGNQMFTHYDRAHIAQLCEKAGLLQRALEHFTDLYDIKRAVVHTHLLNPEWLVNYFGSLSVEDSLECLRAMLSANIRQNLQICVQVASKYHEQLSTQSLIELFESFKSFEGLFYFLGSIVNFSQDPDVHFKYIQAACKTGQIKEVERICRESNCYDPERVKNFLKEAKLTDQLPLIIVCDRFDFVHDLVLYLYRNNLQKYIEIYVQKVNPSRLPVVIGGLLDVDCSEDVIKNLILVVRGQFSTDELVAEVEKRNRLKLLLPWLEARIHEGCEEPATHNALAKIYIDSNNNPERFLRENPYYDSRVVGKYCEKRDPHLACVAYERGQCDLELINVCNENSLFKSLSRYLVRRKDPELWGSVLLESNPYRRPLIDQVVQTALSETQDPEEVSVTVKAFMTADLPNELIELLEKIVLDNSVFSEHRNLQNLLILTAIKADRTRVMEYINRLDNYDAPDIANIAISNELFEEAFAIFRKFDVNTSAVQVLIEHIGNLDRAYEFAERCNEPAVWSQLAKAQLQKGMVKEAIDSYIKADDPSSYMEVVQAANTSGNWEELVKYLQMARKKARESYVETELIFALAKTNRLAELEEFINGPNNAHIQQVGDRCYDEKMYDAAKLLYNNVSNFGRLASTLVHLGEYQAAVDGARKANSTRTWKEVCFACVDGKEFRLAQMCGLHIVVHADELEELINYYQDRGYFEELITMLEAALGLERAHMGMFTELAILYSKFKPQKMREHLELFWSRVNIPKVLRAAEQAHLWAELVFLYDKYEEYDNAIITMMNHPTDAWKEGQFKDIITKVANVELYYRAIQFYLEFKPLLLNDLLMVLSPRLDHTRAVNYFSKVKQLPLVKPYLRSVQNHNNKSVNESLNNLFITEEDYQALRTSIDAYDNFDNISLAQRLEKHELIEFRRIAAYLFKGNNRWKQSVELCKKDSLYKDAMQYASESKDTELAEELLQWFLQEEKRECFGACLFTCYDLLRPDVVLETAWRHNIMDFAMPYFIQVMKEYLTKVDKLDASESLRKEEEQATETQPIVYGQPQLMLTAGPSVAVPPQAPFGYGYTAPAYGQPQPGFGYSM
clathrin/AP cages, sequence (P04973 whole entry partner): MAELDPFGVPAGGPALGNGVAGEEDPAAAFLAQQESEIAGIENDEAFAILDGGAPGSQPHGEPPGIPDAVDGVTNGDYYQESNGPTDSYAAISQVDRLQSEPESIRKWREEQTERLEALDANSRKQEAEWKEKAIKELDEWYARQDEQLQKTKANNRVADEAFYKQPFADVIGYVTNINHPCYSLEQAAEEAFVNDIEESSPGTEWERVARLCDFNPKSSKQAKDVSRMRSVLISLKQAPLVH
clathrin/AP cages, sequence (P04975 whole entry partner): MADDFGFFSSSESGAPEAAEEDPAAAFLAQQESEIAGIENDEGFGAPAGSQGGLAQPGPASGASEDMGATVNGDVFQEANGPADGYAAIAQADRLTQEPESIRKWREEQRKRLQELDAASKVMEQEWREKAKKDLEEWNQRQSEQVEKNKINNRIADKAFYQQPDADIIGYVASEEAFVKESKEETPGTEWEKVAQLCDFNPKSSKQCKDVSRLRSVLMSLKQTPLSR
assembled clathrin/AP cages (bovine (purified from bovine brain)), sequence (P49951 whole entry, looked up): as the sequence (P49951 whole entry) above

| line-broadening, Phe εH [1] [Hz] | line-broadening, Thr9 γH [1] [Hz] | line-broadening, Thr10 γH [1] [Hz] | line-broadening, Tyr εH [1] [Hz] | line-broadening, Val γH1 [1] [Hz] | line-broadening, Val γH2 [1] [Hz] | Molecule | line-broadening Phe εH (clathrin/AP cages; [2]) [Hz] | line-broadening Thr10 γH (clathrin/AP cages; [2]) [Hz] | line-broadening Tyr εH (clathrin/AP cages; [2]) [Hz] | line-broadening Val γH1 (clathrin/AP cages; [2]) [Hz] | line-broadening Val γH2 (clathrin/AP cages; [2]) [Hz] | cage-induced line-broadening (in words) (clathrin/AP cages; 20 mg/ml clathrin/AP cages, pH 6.0) |
| --- | --- | --- | --- | --- | --- | --- | --- | --- | --- | --- | --- | --- |
|  |  |  |  |  |  | FDNPVYQKTT (acyl-FDNPVYQKTT-OH; reading uncertain; also: acylated N-terminus, acyl group not given here) | 3.60 | 2.95 | 3.45 | 5.20 | 3.82 | pronounced increase in the line widths |
| 3.6 | 3.18 | 2.95 | 3.45 | 5.2 | 3.82 | acyl-FDNPVYQKTT-OH (reading uncertain; also: acylated NH2 terminus) [wild-type LDL receptor internalization motif decapeptide …] |  |  |  |  |  |  |
